For four substances, Kd results are on record in PMC7852052.

In one assay the target is TNFR2-Fc (UniProt P25119). Briefly: BLI.
In a further assay the target is TNFR1-Fc (UniProt P25118). Briefly: BLI. Background: In BLI a coated tip is dipped into the sample, and binding shifts an interference pattern.
Sequence of UniProt P25118 (P25118 30-212): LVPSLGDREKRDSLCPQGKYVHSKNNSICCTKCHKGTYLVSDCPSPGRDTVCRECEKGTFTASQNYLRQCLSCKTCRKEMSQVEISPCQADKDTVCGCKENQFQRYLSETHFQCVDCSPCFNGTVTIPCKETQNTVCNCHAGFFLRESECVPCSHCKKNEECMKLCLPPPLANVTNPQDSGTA

Sequence of UniProt P25119 (P25119 23-258): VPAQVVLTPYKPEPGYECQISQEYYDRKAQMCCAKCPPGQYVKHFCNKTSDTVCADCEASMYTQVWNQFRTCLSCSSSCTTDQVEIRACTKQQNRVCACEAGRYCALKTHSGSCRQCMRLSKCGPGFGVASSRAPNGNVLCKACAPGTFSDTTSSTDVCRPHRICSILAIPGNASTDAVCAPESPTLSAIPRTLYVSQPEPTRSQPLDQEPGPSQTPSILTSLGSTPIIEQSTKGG

The Kd is the equilibrium constant for the complex coming apart. As to “mutated NGR-TNFα with valine at the start of TNFα (NGR-TNFα-V)”, the values for the Kd with TNFR2-Fc and with TNFR1-Fc were 2.45 nM and 0.526 nM, respectively.

As to “mutated murine TNFα with valine at the start (TNFα-V) (ligand)”, the dissociation constant Kd is 1.86 nM with TNFR2-Fc and 0.326 nM with TNFR1-Fc.

Turning to “native NGR-TNFα with leucine at the start of TNFα (NGR-TNFα-L)”, the values for the dissociation constant (Kd) with TNFR2-Fc and in the assay with TNFR1-Fc were 4.63 nM and 0.741 nM, respectively.

With “native murine TNFα with leucine at the start (TNFα-L) (ligand)”, the dissociation constant (Kd) in the assay with TNFR2-Fc came to 2.1 nM; in the assay with TNFR1-Fc, 0.309 nM.
